In the supplement of paper PMC7877785:
± gives the uncertainty stated by the source.

Assay: self-splicing fitness, log relative to wild type (ln ratio); higher = more splicing; Tetrahymena group I intron in knt gene, E. coli kanamycin selection, DiMSum; sequences stand for … in CUCUCU…GGAGGGAAAAGUUAUCAGGCAUGCACCUGGUAGCUAGUCUUUAAACCAAUAGAUUGCAUCGGUUUAAAAGGCAAGACCGUCAAAUUGCGGGAAAGGGGUCAACAGCCGUUCAGUACCAAGUCUCAGGGGAAACUUUGAGAUGGCCUUGCAAAGGGUAUGGUAAUAAGCUGACGGACAUGGUCCUAACCACGCAGCCAAGUCCUAAGUCAACAGAUCUUCUGUUGAUAUGGAUGCAGUUCACAGACUAAAUGUCGGUCGGGGAAGAUGUAUUCUUCUCAUAAGAUAUAGUCGGACCUCUCCUUAAUGGGAGCUAGCGGAUGAAGUGAUGCAACACUGGAGCCGCUGGGAACUAAUUUGUAUGCGAAAGUAUAUUGAUUAGUUUUGGAGUACUCGUGGUCG
How it was run: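 The eight P1ex-region nucleotides of an intron in the knt kanamycin-resistance gene on pET-22b(+) were all randomised and the library put into E. coli BL21(DE3). Six replicate transformations were grown overnight at 37°C or 30°C on LB agar with or without 25 μg/mL kanamycin, together with 100 μg/mL carbenicillin, 50 μM IPTG and 0.2% rhamnose. Colonies were pooled and amplicon-sequenced on an Illumina HiSeq 2500. Fitness from DiMSum is the error-weighted combination of wild-type-normalised replicate fold changes, kanamycin over none.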

Sequence	self-splicing fitness (ln) (30 °C)	self-splicing fitness (ln) (37 °C)
AUUUAGCAAUAUUACGCGGU	-2.13 ± 0.29	-1.87 ± 0.44
UGUCAGCAAUAUUACGCGUC	-2.7 ± 0.3	-1.51 ± 0.29
UUGCAGCAAUAUUACGCUUA	-0.263 ± 0.12	-0.0443 ± 0.13
CGAAAGCAAUAUUACGUCGA	-3.02 ± 0.17	-1.51 ± 0.14
UACCAGCAAUAUUACGGCGU	-0.619 ± 0.055	-0.341 ± 0.072
UUGAAGCAAUAUUACGAUAC	-2.62 ± 0.2	-2.62 ± 0.26
GCGUAGCAAUAUUACGAGAU	-2.22 ± 0.12	-2.25 ± 0.17
CAUCAGCAAUAUUACGGGAG	-0.766 ± 0.054	-0.2 ± 0.075
GCGUAGCAAUAUUACGCGAC	-2.5 ± 0.11	-1.42 ± 0.12
ACCAAGCAAUAUUACGAAAG	-3.27 ± 0.18	-1.78 ± 0.14
GACUAGCAAUAUUACGGUAA	-0.126 ± 0.084	-0.197 ± 0.078
AAUAAGCAAUAUUACGAGCA	-1.37 ± 0.2	-0.258 ± 0.2
GGUCAGCAAUAUUACGGACA	-0.754 ± 0.19	-0.179 ± 0.17
UUUCAGCAAUAUUACGGUAU	-3.02 ± 0.19	-1.67 ± 0.15
GAUCAGCAAUAUUACGCGCC	-0.0847 ± 0.14	-0.763 ± 0.17
UUCUAGCAAUAUUACGGCAG	0.185 ± 0.42	-0.821 ± 0.39
UAGCAGCAAUAUUACGUUGU	-3.72 ± 0.21	-3.08 ± 0.26
UGUAAGCAAUAUUACGUGCG	-0.869 ± 0.075	-0.337 ± 0.1
UCAGAGCAAUAUUACGGCCC	-2.13 ± 0.39	-0.0611 ± 0.34
UCCCAGCAAUAUUACGACGA	-0.00629 ± 0.056	0.0828 ± 0.065
UUCAAGCAAUAUUACGGAGC	-2.66 ± 0.28	-1.8 ± 0.23
UGGAAGCAAUAUUACGGCAC	–	-1.36 ± 0.37
CCCGAGCAAUAUUACGUCCU	-3.97 ± 0.39	-2.75 ± 0.39
CCAGAGCAAUAUUACGCUAC	–	-1.72 ± 0.33
GACGAGCAAUAUUACGUUGU	-3.4 ± 0.14	-2.74 ± 0.16

Sequence	self-splicing fitness (ln) (30 °C)	self-splicing fitness (ln) (37 °C)
CGAAAGCAAUAUUACGUCCU	-0.837 ± 0.11	-0.445 ± 0.13
UUCUAGCAAUAUUACGUCAG	-3.16 ± 0.37	-1.75 ± 0.26
UGCAAGCAAUAUUACGUCGU	-3.58 ± 0.22	-1.81 ± 0.17
GCAGAGCAAUAUUACGCAGG	-4.06 ± 0.39	-2.2 ± 0.22
AUUGAGCAAUAUUACGAACC	–	-2.31 ± 0.46
UUUAAGCAAUAUUACGAAGA	-2.77 ± 0.27	-1.33 ± 0.21
GAAUAGCAAUAUUACGAACU	-0.471 ± 0.085	0.508 ± 0.1
UUGUAGCAAUAUUACGUGGG	-4.04 ± 0.46	-2.06 ± 0.24
ACAAAGCAAUAUUACGUGUC	-3.69 ± 0.14	-3 ± 0.16
GAGCAGCAAUAUUACGGUUG	-3.18 ± 0.17	-1.99 ± 0.16
GCCCAGCAAUAUUACGUCAU	-2.82 ± 0.1	-1.29 ± 0.097
CACGAGCAAUAUUACGCGUC	-3.19 ± 0.32	-1.52 ± 0.19
GUGUAGCAAUAUUACGAUAG	-3.84 ± 0.27	-0.946 ± 0.19
UAUGAGCAAUAUUACGCUGG	-2.71 ± 0.33	-1.79 ± 0.38
GUUAAGCAAUAUUACGGACG	-1.07 ± 0.12	-1.3 ± 0.14
AGCCAGCAAUAUUACGAGCG	-1.36 ± 0.095	-0.0302 ± 0.13
UAAGAGCAAUAUUACGCUAG	-3.86 ± 0.26	-1.94 ± 0.21
GACUAGCAAUAUUACGCCGA	-0.898 ± 0.21	-0.421 ± 0.2
GUCUAGCAAUAUUACGUGAU	-1.04 ± 0.09	-0.766 ± 0.1
CGUGAGCAAUAUUACGGCCG	-1.92 ± 0.43	–
GUUGAGCAAUAUUACGCCGA	-2.15 ± 0.41	–
GCUGAGCAAUAUUACGAAUA	-2.55 ± 0.29	-1.53 ± 0.39
GCUCAGCAAUAUUACGCCGC	-3.66 ± 0.44	–
UGGAAGCAAUAUUACGCAAA	-1.24 ± 0.16	-0.937 ± 0.16
AAGUAGCAAUAUUACGUUGU	-2.95 ± 0.1	-2.43 ± 0.13

Sequence	self-splicing fitness (ln) (30 °C)	self-splicing fitness (ln) (37 °C)
GAAUAGCAAUAUUACGACUA	-1.42 ± 0.2	-0.533 ± 0.31
CAGAAGCAAUAUUACGAGGC	–	-2.83 ± 0.4
ACCAAGCAAUAUUACGCCGU	-3.18 ± 0.17	-1.66 ± 0.15
AGCUAGCAAUAUUACGAUGA	-2.51 ± 0.21	-2.54 ± 0.15
UACUAGCAAUAUUACGACCA	0.122 ± 0.088	-0.816 ± 0.1
AUUAAGCAAUAUUACGGUAU	-1.01 ± 0.11	-1.2 ± 0.14
CGAAAGCAAUAUUACGCUAU	-4.13 ± 0.36	-2.4 ± 0.27
UGGGAGCAAUAUUACGAGAG	-3.13 ± 0.32	-2.85 ± 0.36
AUUGAGCAAUAUUACGUAGG	-3.16 ± 0.37	0.0777 ± 0.29
CGCGAGCAAUAUUACGGAGU	-4.33 ± 0.46	-2.08 ± 0.21
AUCGAGCAAUAUUACGAUUU	-1.42 ± 0.11	-0.535 ± 0.13
CGCUAGCAAUAUUACGCUUG	-3.3 ± 0.27	-3 ± 0.4
UGAGAGCAAUAUUACGACAU	-3.847 ± 0.037	-2.82 ± 0.048
GGAUAGCAAUAUUACGUAGG	-2.82 ± 0.19	-1.52 ± 0.18
ACUUAGCAAUAUUACGCAAG	-2.24 ± 0.17	-1.32 ± 0.14
CGUAAGCAAUAUUACGGAUG	-0.733 ± 0.091	-0.608 ± 0.12
AACGAGCAAUAUUACGUGUA	-2.55 ± 0.11	-3.2 ± 0.14
CCACAGCAAUAUUACGUGAU	-3.51 ± 0.18	-1.98 ± 0.12
GUAAAGCAAUAUUACGGGGU	-3.02 ± 0.19	-2.25 ± 0.21
UCAAAGCAAUAUUACGGACU	-3.52 ± 0.3	-2.27 ± 0.25
GGAUAGCAAUAUUACGCGAC	-3.69 ± 0.36	-1.92 ± 0.38
GGUCAGCAAUAUUACGCAGG	–	-3.55 ± 0.3
GAACAGCAAUAUUACGAUUU	-0.342 ± 0.05	-0.476 ± 0.064
GUAUAGCAAUAUUACGCCUC	-1.32 ± 0.21	-0.746 ± 0.27
CUCGAGCAAUAUUACGCAAC	-3.47 ± 0.49	-1.71 ± 0.31

Sequence	self-splicing fitness (ln) (30 °C)	self-splicing fitness (ln) (37 °C)
GUGAAGCAAUAUUACGGUAA	-0.519 ± 0.073	-0.169 ± 0.1
GCCAAGCAAUAUUACGCCCC	-1.02 ± 0.21	-0.946 ± 0.22
CAGUAGCAAUAUUACGGAGC	–	-1.75 ± 0.33
GAGUAGCAAUAUUACGCGUA	-2.66 ± 0.33	-0.648 ± 0.29
GACGAGCAAUAUUACGCUGA	-3.74 ± 0.35	-1.95 ± 0.24
UCCCAGCAAUAUUACGCAAU	-2.69 ± 0.11	-2.16 ± 0.13
AUAAAGCAAUAUUACGUUCC	-0.979 ± 0.13	-0.885 ± 0.18
CGGUAGCAAUAUUACGUACU	-1.36 ± 0.15	-0.578 ± 0.16
CCUGAGCAAUAUUACGACUU	-3.87 ± 0.27	-2.46 ± 0.24
AUUCAGCAAUAUUACGGGGC	-3.25 ± 0.3	-2.99 ± 0.21
AUCCAGCAAUAUUACGAUAA	-1.56 ± 0.15	-1.03 ± 0.19
GGGUAGCAAUAUUACGGGGG	-2.97 ± 0.24	-2.09 ± 0.25
GGAUAGCAAUAUUACGGCUU	-0.686 ± 0.095	-0.309 ± 0.11
AGAUAGCAAUAUUACGACGC	-0.572 ± 0.16	0.997 ± 0.22
ACUGAGCAAUAUUACGUCAA	-3.09 ± 0.23	-2.31 ± 0.19
CUGUAGCAAUAUUACGGAAA	-0.916 ± 0.34	–
AGACAGCAAUAUUACGGCAA	-1.37 ± 0.064	-0.634 ± 0.079
UGUUAGCAAUAUUACGGAUA	-1.36 ± 0.13	-1.45 ± 0.12
AUGUAGCAAUAUUACGUCCA	-1.65 ± 0.17	-0.252 ± 0.17
AAUUAGCAAUAUUACGCACC	-0.701 ± 0.15	0.362 ± 0.17
AUAGAGCAAUAUUACGCCGU	-0.866 ± 0.21	0.511 ± 0.26
CUAAAGCAAUAUUACGUAUC	-3.77 ± 0.18	-2.22 ± 0.22
ACCAAGCAAUAUUACGAGUA	-2.81 ± 0.14	-2.29 ± 0.13
